Measured values from patent US20160319321.
Where a chain is given by its changes, count along the chain named. Numbers in names are those of the source. Where “and” joins values, the source holds several entries; their conditions need not be identical. Equal values may be shown once.

Assays:
[1] = target: T1, Lys(Dnp)-VIGDRHAEGT-Lys(Abz)amide
T1 chain: KVIGDRHAEGTK

[2] = target: T2, Lys(Dnp)-DLGDR-HSQGT-Lys(Abz)amide
T2 chain: KDLGDRHSQGTK

[3] = target: T3, Lys(Dnp)-EDGDR-EGTFT-Lys(Abz)amide
T3 chain: KEDGDREGTFTK

[4] = target: T4, Lys(Dnp)-ELGDR-EGTFT-Lys(Abz)amide
T4 chain: KELGDREGTFTK

[5] = target: T5, Lys(Dnp)-DGGDR-HAEGT-Lys(Abz)amide
T5 chain: KDGGDRHAEGTK

[6] = target: T6, Lys(Dnp)-YEGDR-HAEGT-Lys(Abz)amide
T6 chain: KYEGDRHAEGTK

[7] = target: T7, Lys(Dnp)-DDGDR-EGTFT-Lys(Abz)amide
T7 chain: KDDGDREGTFTK

[8] = target: T8, Lys(Dnp)-MEGDR-HAEGT-Lys(Abz)amide
T8 chain: KMEGDRHAEGTK

[9] = target: T9, Lys(Dnp)-EHGDR-EGTFT-Lys(Abz)amide
T9 chain: KEHGDREGTFTK

[10] = target: T10, Lys(Dnp)-SGGDRHAEGT-Lys(Abz)amide
T10 chain: KSGGDRHAEGTK

[11] = target: T11, Lys(Dnp)-DWGDR-HGEGT-Lys(Abz)amide
T11 chain: KDWGDRHGEGTK

[12] = target: T12, DVKPGQELYDDDDK-[Arg34]GLP-1(9-37)
T12 chain: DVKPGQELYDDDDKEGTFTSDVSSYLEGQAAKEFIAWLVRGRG

[13] = target: T13, DVKPGQPLADDDDK-[Arg34]GLP-1(9-37)
T13 chain: T12 chain with E7P, Y9A

[14] = target: T14, Lys(Dnp)-DTGDR-HAEGT-Lys(Abz)amide
T14 chain: KDTGDRHAEGTK

[15] = target: T15, Lys(Dnp)-EHGDR-HAEGT-Lys(Abz)amide
T15 chain: KEHGDRHAEGTK

[16] = target: T16, DVKPGQPEYDEGDR-[Arg34]GLP-1(9-37)
T16 chain: T12 chain with E7P, L8E, D11E, D12G, K14R

[17] = target: T17, DVKPEQPLYDDDDK-[Arg34]GLP-1(9-37)
T17 chain: T12 chain with G5E, E7P

[18] = target: T18, Lys(Dnp)-DSGDR-HAEGT-Lys(Abz)amide
T18 chain: KDSGDRHAEGTK

[19] = target: T19, Lys(Dnp)-NEDGDR-HAEGT-Lys(Abz)amide (not fully specified)
T19 chain: KNEDGDRHAEGTK

[20] = target: T20, Lys(Dnp)-EAGDR-EGTFT-Lys(Abz)amide
T20 chain: KEAGDREGTFTK

[21] = target: T21, Lys(Dnp)-GDEGDR-HAEGT-Lys(Abz)amide
T21 chain: KGDEGDRHAEGTK

[22] = target: T22, Lys(Dnp)-YDEGDR-HAEGT-Lys(Abz)amide
T22 chain: KYDEGDRHAEGTK

[23] = target: T23, Lys(Dnp)-ELGDR-HAEGT-Lys(Abz)amide
T23 chain: KELGDRHAEGTK

[24] = target: T24, Lys(Dnp)-EHGDR-HGEGT-Lys(Abz)amide
T24 chain: KEHGDRHGEGTK

[25] = target: T25, Lys(Dnp)-DLGDR-EGTFT-Lys(Abz)amide
T25 chain: KDLGDREGTFTK

[26] = target: T26, Lys(Dnp)-DHGDR-HGEGT-Lys(Abz)amide
T26 chain: KDHGDRHGEGTK

[27] = target: T27, Lys(Dnp)-ETGDR-HAEGT-Lys(Abz)amide
T27 chain: KETGDRHAEGTK

[28] = target: T28, Lys(Dnp)-EAGDR-HAEGT-Lys(Abz)amide
T28 chain: KEAGDRHAEGTK

[29] = target: T29, DVKPGQPLEDDDDK-[Arg34]GLP-1(9-37)
T29 chain: T12 chain with E7P, Y9E

[30] = target: T30, Lys(Dnp)-DGGDR-HGEGT-Lys(Abz)amide
T30 chain: KDGGDRHGEGTK

[31] = target: T31, Lys(Dnp)-DEGDR-HSQGT-Lys(Abz)amide
T31 chain: KDEGDRHSQGTK

[32] = target: T32, DVKPGQPEYDDDDK-[Arg34]GLP-1(9-37)
T32 chain: T12 chain with E7P, L8E

[33] = target: T33, Lys(Dnp)-PEGDR-HAEGT-Lys(Abz)amide
T33 chain: KPEGDRHAEGTK

[34] = target: T34, Lys(Dnp)-DFGDR-HAEGT-Lys(Abz)amide
T34 chain: KDFGDRHAEGTK

[35] = target: T35, DVKPGQPLEDEGDR-[Arg34]GLP-1(9-37)
T35 chain: T12 chain with E7P, Y9E, D11E, D12G, K14R

[36] = target: T36, Lys(Dnp)-DDGDR-HGEGT-Lys(Abz)amide
T36 chain: KDDGDRHGEGTK

[37] = target: T37, Lys(Dnp)-IYGDRHAEGT-Lys(Abz)amide
T37 chain: KIYGDRHAEGTK

[38] = target: T38, Lys(Dnp)-ESGDR-HGEGT-Lys(Abz)amide
T38 chain: KESGDRHGEGTK

[39] = target: T39, Lys(Dnp)-EEGDR-HGEGT-Lys(Abz)amide
T39 chain: KEEGDRHGEGTK

[40] = target: T40, Lys(Dnp)-EQGDR-HAEGT-Lys(Abz)amide
T40 chain: KEQGDRHAEGTK

B1: bovine Enterokinase light chain variant (C112A, L134K, I135K) (protein)
chain: IVGGSDSREGAWPWVVALYFDDQQVCGASLVSRDWLVSAAHCVYGRNMEPSKWKAVLGLHMASNLTSPQIETRLIDQIVINPHYNKRRKNNDIAMMHLEMKVNYTDYIQPIALPEENQVFPPGRICSIAGWGAKKYQGSTADVLQEADVPLLSNEKCQQQMPEYNITENMVCAGYEAGGVDSCQGDSGGPLMCQENNRWLLAGVTSFGYQCALPNRPGVYARVPRFTEWIQSFLH
- Activity (%) [1]: 68%
- Activity (%) [2]: 268%
- Activity (%) [3]: 505%
- Activity (%) [4]: 396%
- Activity (%) [5]: 431%
- Activity (%) [6]: 377%
- Activity (%) [7]: 428%
- Activity (%) [8]: 419%
- Activity (%) [9]: 339%
- Activity (%) [10]: 243%
- Activity (%) [11]: 338%
- Activity (%) [12]: 168%
- Activity (%) [13]: 134%
- Activity (%) [14]: 434%
- Activity (%) [15]: 549%
- Activity (%) [16]: 625%
- Activity (%) [17]: 167%
- Activity (%) [18]: 504% and 380%
- Activity (%) [19]: 114%
- Activity (%) [20]: 355%
- Activity (%) [21]: 267%
- Activity (%) [22]: 153%
- Activity (%) [23]: 659%
- Activity (%) [24]: 491%
- Activity (%) [25]: 438%
- Activity (%) [26]: 526%
- Activity (%) [27]: 475%
- Activity (%) [28]: 582%
- Activity (%) [29]: 100%
- Activity (%) [30]: 301%
- Activity (%) [31]: 621%
- Activity (%) [32]: 158%
- Activity (%) [33]: 441%
- Activity (%) [34]: 550%
- Activity (%) [35]: 653%
- Activity (%) [36]: 439%
- Activity (%) [37]: 117%
- Activity (%) [38]: 221%
- Activity (%) [39]: 641%
- Activity (%) [40]: 808%
